Reference: article PMC5947528
Values belong to the binder of their own block, whether it stands above or below them.

Target: E. coli 3'-phosphoadenosine 5'-phosphosulfate (PAPS) reductase (E. coli) (UniProt P17854)
Chain of UniProt P17854 (P17854 whole entry): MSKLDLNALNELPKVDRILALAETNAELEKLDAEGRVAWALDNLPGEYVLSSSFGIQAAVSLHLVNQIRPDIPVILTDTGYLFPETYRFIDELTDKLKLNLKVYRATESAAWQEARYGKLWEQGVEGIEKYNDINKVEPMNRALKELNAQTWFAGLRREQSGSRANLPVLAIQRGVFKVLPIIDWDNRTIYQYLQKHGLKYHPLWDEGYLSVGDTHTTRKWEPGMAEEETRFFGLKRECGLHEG

B1: Arabidopsis thaliana TrxH2 (enzyme)
chain: MGGALSTVFGSGEDATAAGTESEPSRVLKFSSSARWQLHFNEIKESNKLLVVDFSASWCGPCRMIEPAIHAMADKFNDVDFVKLDVDELPDVAKEFNVTAMPTFVLVKRGKEIERIIGAKKDELEKKVSKLRA
Km of PR for the redoxin as electron donor (PAPS reductase assay): 43.1 µM
kcat Km^-1 of PR with the redoxin, percent of that with E. coli Trx1: 23%

B2: Arabidopsis thaliana TrxH1 (enzyme)
chain: MASEEGQVIACHTVETWNEQLQKANESKTLVVVDFTASWCGPCRFIAPFFADLAKKLPNVLFLKVDTDELKSVASDWAIQAMPTFMFLKEGKILDKVVGAKKDELQSTIAKHLA
kcat Km^-1 of PR with the redoxin, percent of that with E. coli Trx1: 18%

B3: Arabidopsis thaliana TrxH3 (enzyme)
chain: MAAEGEVIACHTVEDWTEKLKAANESKKLIVIDFTATWCPPCRFIAPVFADLAKKHLDVVFFKVDVDELNTVAEEFKVQAMPTFIFMKEGEIKETVVGAAKEEIIANLEKHKTVVAAA
Km of PR for the redoxin as electron donor (PAPS reductase assay): 17.8 µM
Vmax of PR with the redoxin as electron donor (PAPS reductase assay): 13.2 U mg^-1
kcat Km^-1 of PR with the redoxin, percent of that with E. coli Trx1: 154%

Results, then the binder that gave them:

Km of PR for the redoxin as electron donor (PAPS reductase assay): 26.1 µM
B4: Arabidopsis thaliana TrxH4 (enzyme)
chain: MAAEEGQVIGCHTNDVWTVQLDKAKESNKLIVIDFTASWCPPCRMIAPIFNDLAKKFMSSAIFFKVDVDELQSVAKEFGVEAMPTFVFIKAGEVVDKLVGANKEDLQAKIVKHTGVTTA

kcat Km^-1 of PR with the redoxin, percent of that with E. coli Trx1: 59%
B5: human Trx1 (enzyme)
chain: MVKQIESKTAFQEALDAAGDKLVVVDFSATWCGPCKMIKPFFHSLSEKYSNVIFLEVDVDDCQDVASECEVKCMPTFQFFKKGQKVGEFSGANKEKLEATINELV
